Data as given in patent US20160287687A1 (IMMATICS BIOTECHNOLOGIES, published 2016).

Biological target: T1, HLA-A*02:01 (human)
T1 construct: MHC monomers first loaded with a UV-sensitive peptide (not identified) that is cleaved by UV light and exchanged for the test peptide; captured on streptavidin plates, detected with anti-β2m; also called peptide-receptive MHC molecules; MHC class I
Assay: UV-ligand exchange + anti-b2m ELISA; peptide exchange yield grade (+ >=10%, ++ >=20%, +++ >=50, ++++ >=75%)
Excerpt: Candidate peptides for T cell based therapies according to the present invention were further tested for their MHC binding capacity (affinity). The individual peptide-MHC complexes were produced by UV-ligand exchange, where a UV-sensitive peptide is cleaved upon UV-irradiation, and exchanged with the peptide of interest as analyzed. Only peptide candidates that can effectively bind and stabilize the peptide-receptive MHC molecules prevent dissociation of the MHC complexes. To determine the yield of the exchange reaction, an ELISA was performed based on the detection of the light chain (β2m) of stabilized MHC complexes. The assay was performed as generally described in Rodenko et al. (Rodenko et al., 2006).
96 well MAXISorp plates (NUNC) were coated over night with 2 ug/ml streptavidin in PBS at room temperature, washed 4× and blocked for 1h at 37° C. in 2% BSA containing blocking buffer. Refolded HLA-A*02:01/MLA-001 monomers served as standards, covering the range of 15-500 ng/ml. Peptide-MHC monomers of the UV-exchange reaction were diluted 100 fold in blocking buffer. Samples were incubated for 1 h at 37° C., washed four times, incubated with 2 ug/ml HRP conjugated anti-β2m for 1h at 37° C., washed again and detected with TMB solution that is stopped with […]. Absorption was measured at 450 nm. […]

SLTALRLLL (source gene KBTBD11) [SLTALRLLL (SEQ ID NO: 70)]
peptide exchange yield: 20 to 50%
